Data set [1] concerns MGLL. In words: Hydrolysis of coumarin arachidonate (C-A), apparent kcat/KM at [S]<<KM. The class given is biochemical, human. The conditions noted are these: estimated; limited by solubility of C-A. From the text:
(§1) A small fluorescent substrate, 4-methyl coumarin butyrate (4MC-B) was used to compare the activity of the engineered mutants to the activity of wt-MGLL (hMGLL 1-303) (SEQ ID NO: 3). The catalytic efficiency (kcat/KM) for the hydrolysis of the 4MC-B was similar for wt-MGLL (hMGLL 1-303) (SEQ ID NO: 3) and all MGLL mutants tested (Table 2). A larger more aliphatic fluorescent substrate, Coumarin Arachidonate (C-A), structurally more closely related to the MGLL natural substrate, 2-AG, was used to compare the activity of wt-MGLL (hMGLL 1-303) (SEQ ID NO: 3) to TEV protease cleaved mut-MGLL (hMGLL 1-303 L169S, L176S) (SEQ ID NO: 5).
(§2) The Michaelis-Menten parameters for the hydrolysis of 4-methylcoumarin butyrate (4MC-B) and coumarin arachidonate (C-A) substrate were determined using 4-5 nM of MGLL in 20 mM Pipes pH 7 and 150 mM NaCl at 37° C. The change in fluorescence due to substrate hydrolysis was monitored using excitation/emission wavelengths of 335/440 in a Safire II instrument from Tecan. The hyperbolic rates versus substrate concentration curves for the hydrolysis of 4MC-B were fit to the Michaelis-Menten equation using Excel.
The apparent kcat/Km ratio for the hydrolysis of C-A was determined at [S]<<KM. […] The kcat/KM values reported are the average from independent values determined from five substrate concentrations ranging from 700 to 40 nM.

Data set [2] can be described thus: Size exclusion chromatography of protein purified in the absence of detergent. The class given is physicochemical. The protocol: A pilot purification of wt-MGLL (hMGLL 1-303) (SEQ ID NO: 3), performed in the complete absence of detergent, generated no protein (data not shown). A second purification of wt-MGLL (hMGLL 1-303) (SEQ ID NO: 3) was done with detergent in the lysis buffer only. Frozen cell pellets for wt-MGLL (hMGLL 1-303) (SEQ ID NO: 3) were thawed, resuspended, and lysed in Bugbuster® lysis buffer for 1 hour at 4° C. Bugbuster® lysis buffer is a proprietary lysis buffer from […] that contains detergent. The lysate was clarified by centrifugation at 40,000×g for 1 hr. No detergent was added at this point or during the rest of the purification. From this point forward, the purification protocol and buffers were the same as described below for mut-MGLL. An average of 2.2 mg of wt-MGLL (hMGLL 1-303) (SEQ ID NO: 3) per liter of cell culture was obtained.
Mutant MGLL (mut-MGLL) constructs were purified in the absence of detergent. […] Fractions were analysed by SDS-PAGE. […] Purification yields were determined by Bradford assay using the protein assay kit from BioRad according to manufacturer's instruction with BSA as a standard (Bradford 1976).

The subject of data set [3] is MGLL. The data set is described as follows: Michaelis-Menten kinetics, hydrolysis of 4-methylcoumarin butyrate (4MC-B). The class given is biochemical, human. Particulars: substrate 4MC-B; 4-5 nM MGLL, 20 mM Pipes pH 7, 150 mM NaCl, 37° C.; average of 2 or 4 assays.
Excerpt: as §1, §2

The test system of data set [4] is MGLL. In words: Thermofluor thermal stability assay. Format: physicochemical, human. Particulars: Thermofluor, 1,8-ANS; for midpoint of the melting transition (Tm): 0.05 mg/ml protein, Pipes pH 7.
Excerpt: (§3) Thermofluor® assays detect small changes in the intrinsic melting temperature of proteins based on binding of ligands. Compounds that interact preferentially with the native form of the protein will increase the Tm, the temperature at which half of the protein is unfolded (Pantoliano et al. 2001). The technique monitors changes in the fluorescent intensity of dyes such as 1-anilinonaphthalene-8-sulfonic acid (1,8-ANS). The fluorescent dyes are quenched in aqueous environments but increase in fluorescence on binding to the hydrophobic core of denatured proteins.
as §3, with “The Thermofluor®” for “Thermofluor®”, “assay is a powerful tool to screen for small molecule inhibitors interacting with a protein's active site or allosteric site. The assay detects” for “assays detect”
Thermofluor® assays were conducted to characterize wt-MGLL (hMGLL 1-303) (SEQ ID NO: 3) and mut-MGLL (hMGLL 1-303 L169S, L176S) and evaluate if the MGLL mutants could be used for high-throughput screening using Thermofluor®. Three microliters of protein at a concentration of 0.05 mg/ml in 50 mM Pipes pH 7, 200 mM NaCl, 100 μM 1,8-ANS, and 0.001% Tween was added to pre-dispensed compound plates. Wells were overlaid with silicone oil (1 μL, Fluka, type DC 200) to prevent evaporation. Final compound concentrations varied from 150 to 0.15 μM. Assay plates were heated at a rate of 1° C./min for all experiments over a temperature range sufficient to measure protein unfolding. Fluorescence was measured by continuous illumination with UV light (Hamamatsu LC6) supplied via fiber optic and filtered through a custom band-pass filter (380-400 nm; >6 OD cutoff). Fluorescence emission was detected by measuring light intensity using a CCD camera (Sensys, Roper Scientific) filtered to detect emission at 500±25 nm, resulting in simultaneous and independent readings of all 384 wells. One or more images were collected at each temperature, and the sum of the pixel intensity in a given area of the assay plate was recorded vs temperature, and fit to standard equations to yield the Tm.
For orientation: DSF heats the sample and reads unfolding from a dye or from intrinsic fluorescence.

Data set [5] can be described thus: Circular dichroism (CD) structural analysis. Particulars: 5 μM protein, 10 mM cacodylic acid pH 7, 140 mM NaCl, 200 to 260 nm. The class given is physicochemical. On the procedure:
Circular dichroism experiments were performed on a Circular Dichroism Spectrometer Model 202 from Aviv Instruments Inc. The CD scans of wt-MGLL (hMGLL 1-303) (SEQ ID NO: 3) and TEV protease cleaved mut-MGLL (hMGLL 1-303 L169S, L176S) (SEQ ID NO: 5) (5 μM protein in 10 mM cacodylic acid pH 7 and 140 mM NaCl) were measured from 200 to 260 nm. Temperature melts were monitored at 210 nm.
(Circular dichroism is widely used to follow secondary structure.)

In general, Km refers to the concentration of substrate that gives half-maximal velocity. `CCCCC/C=C/C/C=C\C/C=C/C/C=C/CCCC(=O)Oc1ccc2ccc(=O)oc2c1` [C-A, Coumarin Arachidonate]: the Km with MGLL [1] was above 30 µM.

B1: wt-MGLL.1-303: wild-type human MGLL isoform 2, amino acids 1-303, with N-terminal His tag and TEV site (protein)
chain: MVDHHHHHHENLYFQGMPEESSPRRTPQSIPYQDLPHLVNADGQYLFCRYWKPTGTPKALIFVSHGAGEHSGRYEELARMLMGLDLLVFAHDHVGHGQSEGERMVVSDFHVFVRDVLQHVDSMQKDYPGLPVFLLGHSMGGAIAILTAAERPGHFAGMVLISPLVLANPESATTFKVLAAKVLNLVLPNLSLGPIDSSVLSRNKTEVDIYNSDPLICRAGLKVCFGIQLLNAVSRVERALPKLTVPFLLLQGSADRLCDSKGAYLLMELAKSQDKTLKIYEGAYHVLHKELPEVTNSVFHEINMWVSQRTATAGTASPP
modifications: N-terminal His tag and TEV site
notes: wild-type human MGLL isoform 2, amino acids 1-303, with N-terminal His tag and TEV site
Take B1: in data set [2], the “aggregation by size exclusion” value stood at 100%. Further, in the data set with MGLL [3], the Kcat stood at 1.13 s⁻¹ and the Km was 162 µM. In the data set with MGLL [4], the “quality of Thermofluor melting transition” value is reported as “very poor transition” and the “midpoint of the melting transition (Tm)” value amounted to 58 °C.

B2: mut-MGLL. 1-303, L169S, L176S: human MGLL 1-303 with cap-domain mutations L169S, L176S (protein)
chain: GMPEESSPRRTPQSIPYQDLPHLVNADGQYLFCRYWKPTGTPKALIFVSHGAGEHSGRYEELARMLMGLDLLVFAHDHVGHGQSEGERMVVSDFHVFVRDVLQHVDSMQKDYPGLPVFLLGHSMGGAIAILTAAERPGHFAGMVLISPLVLANPESATTFKVLAAKVLNSVLPNLSSGPIDSSVLSRNKTEVDIYNSDPLICRAGLKVCFGIQLLNAVSRVERALPKLTVPFLLLQGSADRLCDSKGAYLLMELAKSQDKTLKIYEGAYHVLHKELPEVTNSVFHEINMWVSQRTATAGTASPP
Regarding B2, in data set [2], the “monomer by size exclusion” value is 90%. The “CD scan compared with wt-MGLL purified in the presence of detergent” value in data set [5] is recorded as “similar”. In the data set on MGLL [3], the Kcat is 0.8 s⁻¹ and the Michaelis-Menten constant (Km) came to 136 µM. For the same molecule, in the data set on MGLL [4], the “quality of Thermofluor melting transition” value was “strong transition” and the “midpoint of the melting transition (Tm)” value amounted to 56.7 °C.
